Results published in PMC9482650, “Quantitative fragmentomics allow affinity mapping of interactomes” (Nature Communications, 2022).

Experiments:
Test in all cases: holdup assay
Design in all cases: key: below the threshold = too weak to quantify, mostly under pKd 3.1 to 4
DLG3_1, Q92796 = target: T1, DLG3_1, Q92796
T1 sequence (Q92796 125-227, limits assumed, looked up): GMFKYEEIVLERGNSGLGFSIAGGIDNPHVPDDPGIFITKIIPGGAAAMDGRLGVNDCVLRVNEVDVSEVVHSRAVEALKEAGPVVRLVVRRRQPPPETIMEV

DLG4_2, P78352 = target: DLG4_2, P78352
Chain of DLG4_2, P78352 (P78352 155-259): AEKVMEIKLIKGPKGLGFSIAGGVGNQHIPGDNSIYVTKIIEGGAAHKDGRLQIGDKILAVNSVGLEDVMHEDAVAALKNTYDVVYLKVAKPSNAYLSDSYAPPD

DLG4_3, P78352 = target: DLG4_3, P78352
Chain of DLG4_3, P78352 (P78352 306-403): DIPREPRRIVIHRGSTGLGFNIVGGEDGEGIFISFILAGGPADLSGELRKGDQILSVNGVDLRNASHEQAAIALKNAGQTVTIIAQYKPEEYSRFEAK

FRMPD1, Q5SYB0 = target: T2, FRMPD1, Q5SYB0
T2 sequence (Q5SYB0 52-145, limits assumed, looked up): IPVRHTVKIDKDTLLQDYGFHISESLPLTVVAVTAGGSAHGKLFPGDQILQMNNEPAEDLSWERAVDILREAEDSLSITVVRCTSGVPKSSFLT

FRMPD2_1, Q68DX3 = target: FRMPD2_1, Q68DX3
Chain of FRMPD2_1, Q68DX3 (Q68DX3 770-861): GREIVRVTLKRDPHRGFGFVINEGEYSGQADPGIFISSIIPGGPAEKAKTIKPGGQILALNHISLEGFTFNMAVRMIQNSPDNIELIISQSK

GRIP2_3, Q9C0E4 = target: GRIP2_3, Q9C0E4
Chain of GRIP2_3, Q9C0E4 (Q9C0E4 238-339): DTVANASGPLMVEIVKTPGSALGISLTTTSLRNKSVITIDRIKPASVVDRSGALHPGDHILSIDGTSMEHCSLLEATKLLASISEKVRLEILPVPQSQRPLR

HTRA1, Q92743 = target: HTRA1, Q92743
Chain of HTRA1, Q92743 (Q92743 360-477): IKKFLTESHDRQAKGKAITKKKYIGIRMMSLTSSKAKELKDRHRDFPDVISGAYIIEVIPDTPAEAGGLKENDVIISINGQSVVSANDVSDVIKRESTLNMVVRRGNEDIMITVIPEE

HTRA2, O43464 = target: HTRA2, O43464
Chain of HTRA2, O43464 (O43464 355-458): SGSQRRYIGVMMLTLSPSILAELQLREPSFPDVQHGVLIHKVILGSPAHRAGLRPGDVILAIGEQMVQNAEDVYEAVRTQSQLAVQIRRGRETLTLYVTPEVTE

IL16_1, Q14005 = target: IL16_1, Q14005
Chain of IL16_1, Q14005 (Q14005 210-306): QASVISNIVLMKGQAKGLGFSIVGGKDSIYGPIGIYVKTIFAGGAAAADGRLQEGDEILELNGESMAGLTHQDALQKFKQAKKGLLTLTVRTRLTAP

IL16_3, Q14005 = target: IL16_3, Q14005
Chain of IL16_3, Q14005 (Q14005 1107-1207): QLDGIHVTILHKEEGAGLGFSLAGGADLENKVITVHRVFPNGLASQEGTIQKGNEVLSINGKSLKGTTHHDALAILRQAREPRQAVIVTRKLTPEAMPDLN

IL16_4, Q14005 = target: IL16_4, Q14005
Chain of IL16_4, Q14005 (Q14005 1229-1329): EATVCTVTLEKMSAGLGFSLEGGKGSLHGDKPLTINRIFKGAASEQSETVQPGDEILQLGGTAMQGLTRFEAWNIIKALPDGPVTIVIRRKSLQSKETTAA

Inadl_4, Q8NI35 = target: Inadl_4, Q8NI35
Chain of Inadl_4, Q8NI35 (Q8NI35 547-651): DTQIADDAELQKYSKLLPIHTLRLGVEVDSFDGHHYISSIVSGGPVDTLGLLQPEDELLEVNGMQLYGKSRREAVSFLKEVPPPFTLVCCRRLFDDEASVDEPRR

Inadl_8, Q8NI35 = target: Inadl_8, Q8NI35
Chain of Inadl_8, Q8NI35 (Q8NI35 1425-1530): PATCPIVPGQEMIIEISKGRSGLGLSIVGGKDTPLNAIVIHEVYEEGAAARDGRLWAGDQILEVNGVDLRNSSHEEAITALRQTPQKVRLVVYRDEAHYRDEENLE

LIMK2, P53671 = target: LIMK2, P53671
Chain of LIMK2, P53671 (P53671 143-248): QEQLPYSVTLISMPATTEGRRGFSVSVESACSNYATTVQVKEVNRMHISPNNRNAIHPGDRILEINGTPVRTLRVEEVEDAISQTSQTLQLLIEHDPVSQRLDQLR

LIN7B, Q9HAP6 = target: T3, LIN7B, Q9HAP6
T3 sequence (Q9HAP6 88-185, limits assumed, looked up): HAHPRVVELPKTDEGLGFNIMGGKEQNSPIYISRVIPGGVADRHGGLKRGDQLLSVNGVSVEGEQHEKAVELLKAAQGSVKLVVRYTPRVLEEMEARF

LNX2_2, Q8N448 = target: T4, LNX2_2, Q8N448
T4 sequence (Q8N448 334-432, limits assumed, looked up): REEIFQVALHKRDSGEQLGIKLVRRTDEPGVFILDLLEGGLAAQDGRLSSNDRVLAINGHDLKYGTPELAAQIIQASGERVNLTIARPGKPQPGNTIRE

MPP2, Q14168 = target: T5, MPP2, Q14168
T5 sequence (Q14168 180-250, limits assumed, looked up): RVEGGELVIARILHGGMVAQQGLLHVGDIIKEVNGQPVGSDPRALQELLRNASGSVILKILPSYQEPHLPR

NHERF4_1, Q86UT5-2 = target: NHERF4_1, Q86UT5-2
Chain of NHERF4_1, Q86UT5-2 (Q86UT5 other isoform, or with tags, fused parts or gaps): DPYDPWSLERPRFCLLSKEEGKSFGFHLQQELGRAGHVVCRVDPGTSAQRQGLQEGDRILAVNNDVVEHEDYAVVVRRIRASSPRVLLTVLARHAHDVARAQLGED

PARD3_3, Q8TEW0 = target: PARD3_3, Q8TEW0
Chain of PARD3_3, Q8TEW0 (Q8TEW0 582-685): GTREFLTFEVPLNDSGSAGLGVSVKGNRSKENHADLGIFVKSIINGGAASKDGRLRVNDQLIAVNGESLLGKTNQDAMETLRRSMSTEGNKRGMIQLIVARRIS

PCLO, Q9Y6V0 = target: T6, PCLO, Q9Y6V0
T6 sequence (Q9Y6V0 4491-4600, limits assumed, looked up): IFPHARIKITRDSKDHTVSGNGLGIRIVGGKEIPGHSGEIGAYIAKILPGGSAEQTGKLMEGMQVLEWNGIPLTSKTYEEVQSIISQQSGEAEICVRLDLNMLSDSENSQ

PDLIM1, O00151 = target: PDLIM1, O00151
Chain of PDLIM1, O00151 (O00151 1-87): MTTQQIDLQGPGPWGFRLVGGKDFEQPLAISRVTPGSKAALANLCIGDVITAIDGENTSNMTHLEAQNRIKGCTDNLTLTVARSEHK

PDZRN3_1, Q9UPQ7 = target: T7, PDZRN3_1, Q9UPQ7
T7 sequence (Q9UPQ7 244-349, limits assumed, looked up): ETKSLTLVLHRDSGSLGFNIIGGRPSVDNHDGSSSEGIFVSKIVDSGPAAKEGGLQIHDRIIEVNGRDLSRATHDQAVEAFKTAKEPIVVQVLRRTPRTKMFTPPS

RHPN1, Q8TCX5 = target: T8, RHPN1, Q8TCX5
T8 sequence (Q8TCX5 508-602, limits assumed, looked up): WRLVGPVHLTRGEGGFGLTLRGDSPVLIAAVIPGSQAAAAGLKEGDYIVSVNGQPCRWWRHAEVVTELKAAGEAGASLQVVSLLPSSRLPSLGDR

SNTA1, Q13424 = target: T9, SNTA1, Q13424
T9 sequence (Q13424 82-180, limits assumed, looked up): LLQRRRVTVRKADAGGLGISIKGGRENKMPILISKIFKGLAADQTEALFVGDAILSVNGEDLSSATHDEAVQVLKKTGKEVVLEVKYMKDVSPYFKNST

SNTG2, Q9NY99 = target: T10, SNTG2, Q9NY99
T10 sequence (Q9NY99 68-166, limits assumed, looked up): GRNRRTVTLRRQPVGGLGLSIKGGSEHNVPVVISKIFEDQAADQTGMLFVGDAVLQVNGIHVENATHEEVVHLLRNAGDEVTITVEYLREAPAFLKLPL

SNX27, Q96L92 = target: SNX27, Q96L92
TX1BP3, O14907 = target: T11, TX1BP3, O14907
T11 sequence (O14907 10-122, limits assumed, looked up): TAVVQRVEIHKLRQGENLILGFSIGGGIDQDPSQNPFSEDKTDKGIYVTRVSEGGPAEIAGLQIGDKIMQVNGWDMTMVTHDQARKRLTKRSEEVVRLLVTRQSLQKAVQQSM

[1] = plain residues with an end cap or a label only (N-terminal biotin on a linker: ado-ado)
[2] = plain residues with an end cap or a label only (N-terminal biotin on a linker: (peg)3)

For SRPTKGPTLL [PLEKHH2, Q8IVE3], the pKd (DLG3_1, Q92796; [1]) was “below the threshold”, the pKd (DLG4_2, P78352; [1]) was 3.7 and the pKd (DLG4_3, P78352; [1]) was “below the threshold”. The pKd (FRMPD1, Q5SYB0; [1]) was “below the threshold”, the pKd (FRMPD2_1, Q68DX3; [1]) was “below the threshold” and the pKd (GRIP2_3, Q9C0E4; [1]) was “below the threshold”. The pKd (HTRA1, Q92743; [1]) was 4.16, the pKd (HTRA2, O43464; [1]) was “below the threshold” and the pKd (IL16_1, Q14005; [1]) was “below the threshold”. For the same binder, the pKd (IL16_3, Q14005; [1]) was “below the threshold”, the pKd (IL16_4, Q14005; [1]) was “below the threshold” and the pKd (Inadl_4, Q8NI35; [1]) was “below the threshold”. The pKd (Inadl_8, Q8NI35; [1]) was 3.61, the pKd (LIMK2, P53671; [1]) was “below the threshold” and the pKd (LIN7B, Q9HAP6; [1]) was “below the threshold”. The pKd (LNX2_2, Q8N448; [1]) was “below the threshold”, the pKd (MPP2, Q14168; [1]) was “below the threshold” and the pKd (NHERF4_1, Q86UT5-2; [1]) was 4.41. The pKd (PARD3_3, Q8TEW0; [1]) was “below the threshold”, the pKd (PCLO, Q9Y6V0; [1]) was “below the threshold” and the pKd (PDLIM1, O00151; [1]) was “below the threshold”. The pKd (PDZRN3_1, Q9UPQ7; [1]) was 3.69, the pKd (RHPN1, Q8TCX5; [1]) was “below the threshold” and the pKd (SNTA1, Q13424; [1]) was “below the threshold”. The pKd (SNTG2, Q9NY99; [1]) was “below the threshold”, the pKd (SNX27, Q96L92; [1]) was 3.76 and the pKd (TX1BP3, O14907; [1]) was 4.01.

RTQSSDSAYV [GJD2, Q9UKL4] was tested, and the pKd (DLG3_1, Q92796; [1]) was “below the threshold”, the pKd (DLG4_2, P78352; [1]) was 3.65 and the pKd (DLG4_3, P78352; [1]) was “below the threshold”. For the same binder, the pKd (FRMPD1, Q5SYB0; [1]) was “below the threshold”, the pKd (FRMPD2_1, Q68DX3; [1]) was 3.66 and the pKd (GRIP2_3, Q9C0E4; [1]) was “below the threshold”. The pKd (HTRA1, Q92743; [1]) was 4.6, the pKd (HTRA2, O43464; [1]) was “below the threshold” and the pKd (IL16_1, Q14005; [1]) was “below the threshold”. The pKd (IL16_3, Q14005; [1]) was “below the threshold”, the pKd (IL16_4, Q14005; [1]) was “below the threshold” and the pKd (Inadl_4, Q8NI35; [1]) was “below the threshold”. For the same binder, the pKd (Inadl_8, Q8NI35; [1]) was 3.7, the pKd (LIMK2, P53671; [1]) was “below the threshold” and the pKd (LIN7B, Q9HAP6; [1]) was “below the threshold”. For the same binder, the pKd (LNX2_2, Q8N448; [1]) was 4.65, the pKd (MPP2, Q14168; [1]) was “below the threshold” and the pKd (NHERF4_1, Q86UT5-2; [1]) was 3.6. The pKd (PARD3_3, Q8TEW0; [1]) was 3.68, the pKd (PCLO, Q9Y6V0; [1]) was “below the threshold” and the pKd (PDLIM1, O00151; [1]) was “below the threshold”. For the same binder, the pKd (PDZRN3_1, Q9UPQ7; [1]) was “below the threshold”, the pKd (RHPN1, Q8TCX5; [1]) was 3.84 and the pKd (SNTA1, Q13424; [1]) was “below the threshold”. For the same binder, the pKd (SNTG2, Q9NY99; [1]) was “below the threshold”, the pKd (SNX27, Q96L92; [1]) was 4.13 and the pKd (TX1BP3, O14907; [1]) was “below the threshold”.

In the case of LTAQEQPVYI [APBA1, Q02410], the pKd (DLG3_1, Q92796; [1]) is reported as “below the threshold”, the pKd (DLG4_2, P78352; [1]) is reported as “below the threshold” and the pKd (DLG4_3, P78352; [1]) is reported as “below the threshold”. For the same binder, the pKd (FRMPD1, Q5SYB0; [1]) was “below the threshold”, the pKd (FRMPD2_1, Q68DX3; [1]) was “below the threshold” and the pKd (GRIP2_3, Q9C0E4; [1]) was “below the threshold”. For the same binder, the pKd (HTRA1, Q92743; [1]) was 5.07, the pKd (HTRA2, O43464; [1]) was 3.53 and the pKd (IL16_1, Q14005; [1]) was “below the threshold”. The pKd (IL16_3, Q14005; [1]) was “below the threshold”, the pKd (IL16_4, Q14005; [1]) was 3.57 and the pKd (Inadl_4, Q8NI35; [1]) was “below the threshold”. For the same binder, the pKd (Inadl_8, Q8NI35; [1]) was “below the threshold”, the pKd (LIMK2, P53671; [1]) was “below the threshold” and the pKd (LIN7B, Q9HAP6; [1]) was 3.66. The pKd (LNX2_2, Q8N448; [1]) was 4.9, the pKd (MPP2, Q14168; [1]) was “below the threshold” and the pKd (NHERF4_1, Q86UT5-2; [1]) was “below the threshold”. The pKd (PARD3_3, Q8TEW0; [1]) was 4.82, the pKd (PCLO, Q9Y6V0; [1]) was “below the threshold” and the pKd (PDLIM1, O00151; [1]) was “below the threshold”. The pKd (PDZRN3_1, Q9UPQ7; [1]) was “below the threshold”, the pKd (RHPN1, Q8TCX5; [1]) was “below the threshold” and the pKd (SNTA1, Q13424; [1]) was “below the threshold”. For the same binder, the pKd (SNTG2, Q9NY99; [1]) was “below the threshold”, the pKd (SNX27, Q96L92; [1]) was “below the threshold” and the pKd (TX1BP3, O14907; [1]) was “below the threshold”.

With YDEPTTTTSVPL [SARS-Cov2-3a, P0DTC3] the pKd (DLG3_1, Q92796; [2]) was “below the threshold”, the pKd (DLG4_2, P78352; [2]) was “below the threshold” and the pKd (DLG4_3, P78352; [2]) was “below the threshold”. The pKd (FRMPD1, Q5SYB0; [2]) was “below the threshold”, the pKd (FRMPD2_1, Q68DX3; [2]) was “below the threshold” and the pKd (GRIP2_3, Q9C0E4; [2]) was “below the threshold”. For the same binder, the pKd (HTRA1, Q92743; [2]) was “below the threshold”, the pKd (HTRA2, O43464; [2]) was “below the threshold” and the pKd (IL16_1, Q14005; [2]) was “below the threshold”. The pKd (IL16_3, Q14005; [2]) was “below the threshold”, the pKd (IL16_4, Q14005; [2]) was “below the threshold” and the pKd (Inadl_4, Q8NI35; [2]) was “below the threshold”. For the same binder, the pKd (Inadl_8, Q8NI35; [2]) was “below the threshold”, the pKd (LIMK2, P53671; [2]) was “below the threshold” and the pKd (LIN7B, Q9HAP6; [2]) was “below the threshold”. The pKd (LNX2_2, Q8N448; [2]) was “below the threshold”, the pKd (MPP2, Q14168; [2]) was “below the threshold” and the pKd (NHERF4_1, Q86UT5-2; [2]) was 4.43. The pKd (PARD3_3, Q8TEW0; [2]) was “below the threshold”, the pKd (PCLO, Q9Y6V0; [2]) was “below the threshold” and the pKd (PDLIM1, O00151; [2]) was “below the threshold”. For the same binder, the pKd (PDZRN3_1, Q9UPQ7; [2]) was “below the threshold”, the pKd (RHPN1, Q8TCX5; [2]) was “below the threshold” and the pKd (SNTA1, Q13424; [2]) was “below the threshold”. The pKd (SNTG2, Q9NY99; [2]) was “below the threshold”, the pKd (SNX27, Q96L92; [2]) was “below the threshold” and the pKd (TX1BP3, O14907; [2]) was “below the threshold”.
